Assay: soluble on expression in E. coli; label from the status in PepcDB or PDB records

| Sequence | soluble on expression in E. coli |
| --- | --- |
| MKVGINGFGRIGRQVFRILHSRGVEVALINDLTDNKTLAHLLKYDSIYHRFPGEVAYDDQYLYVDGKAIRATAVKDPKEIPWAEAGVGVVIESTGVFTDADKAKAHLEGGAKKVIITAPAKGEDITIVMGVNHEAYDPSRHHIISNASCTTNSLAPVMKVLEEAFGVEKALMTTVHSYTNDQRLLDLPHKDLRRARAAAINIIPTTTGAAKATALVLPSLKGRFDGMALRVPTATGSISDITALLKREVTAEEVNAALKAAAEGPLKGILAYTEDEIVLQDIVMDPHSSIVDAKLTKALGNMVKVFAWYDNEWGYANRVADLVELVLRKGV | soluble |
| LFRRWVIYIIRLYQRWISPLKTMPSCRFYPTCSQYAIDAVGRYGVIKGGFMALKRILKCHPFHPGGYDPVK | soluble |
| AEICLITGTPGSGKTLKMVSMMANDEMFKPDENGIRRKVFTNIKGLKIPHTYIETDAKKLPKSTDEQLSAHDMYEWIKKPENIGSIVIVDEAQDVWPARSAGSKIPENVQWLNTHRHQGIDIFVLTQGPKLLDQNLRTLVRKHYHIASNKMGMRTLLEWKICADDPVKMASSAFSSIYTLDKKVYDLYESAEVHTVNKVKRSK | not soluble |
| MKAKPLSQDPGSKRYAYRINKEENRKELKHVKINESSLVQEGQKIDLPKKRYYRQRAHSNPFSDHQLEYPVSPQDMDWSKLYPYYKNAENGQMTKKVTIADIGCGFGGLMIDLSPAFPEDLILGMEIRVQVTNYVEDRIIALRNNTASKHGFQNINVLRGNAMKFLPNFFEKGQLSKMFFCFPDPHFKQRKHKARIITNTLLSEYAYVLKEGGVVYTITDVKDLHEWMVKHLEEHPLFERLSKEWEENDECVKIMRNATEEGKKVERKKGDKFVACFTRLPTPAIL | soluble |
| MGSDKIHHHHHHMNFNELKTFVALVETKHFTKTADRLYISQPTVSLHLKHLEEHFGQSLIHRHTFNKTIEISEAGWIVYRHAKEILHQAIRLEQEIDELEGITRGTLRIAATHTIYEAMLEEMIHDFLLVYPDVSVDARVMNQEQVEQALLHYEIDLGMVEGLHRSHQIEAIPFATDRLRIIGHHHLVPEQATWIYREEGSAARLALETWLQTQAIVPKRIITVYSNRLIKQLIKNGTGISILSERLAGSLLESERFQTYDDSQIDPRMFQFITLKGETTRLSQKWINQHGGSD | not soluble |
| MSLVVGTDAHKYSHTFVATDEVGRQLGEKTVKATTAGHATAIMWAREQFGLELIWGIEDCRNMSARLERDLLAAGQQVVRVPTKLMAQTRKSARSRGKSDPIDALAVARAVLRETDLPLATHDETSRELKLLTDRRDVLVAQRTSAINRLRWLVHELDPERAPAARSLDAAKHQQALRTWLDTQPGLVAELARAELTDIIRLTGEINTLAQRISARVHQVAPALLEIPGCAELTAAKIVGEAAGVTRFKSEAAFACHAAVAPIPVWSGNTAGQMRLSRSGNRQLNAALHRIALTQIRMTDSRGQAYYQRLQDAGKTKRAALRCLKRRLARTVFQALRTVHQPSSEHTQPAAACHRSYCSSHLGEPPRLTDMTQKTRIQPLPPKRAGLLIRALYRIAKRRFGEVPEPFTVTAHHRRLLIANVVHEALLQRASRKLPPSVRELAVFWTARSIGCSWCVDFGAMLQRLDGLDVDRLTDIDNYATSSKFSDDERAAIAYAEAMTADPHSVTDEQVADLRARFGEAGVIELTYQIGVENMRARMNSALGITEQGFNSGDACRVPWAAPDVPSAESREGHHHHHH | not soluble |
| MGNTAITRVQMEATKSVPVDHAKYMSGSGAPPPECPMHQKHGDAKSASAVPPHPKMQAASECPVQHDNSDVNPLNMMPPANQQPAADQPFPLPTDRQTSTIPKVTEDGSVQFWQYPSQQMFWNAMLRKGWRWKTEDVSQKDMGDIIRIHNANNEQAWQEVLKWEALHAKECGNPRLKSFGGKAKDFSPRARFRSWLGYELPFDRHDWIVDRCGKDVRYVIDYYDGGLVDKDYRFALLDVRPAMDSVDNVWDRMRVAYMRWKYELFEKFGSADGGKVTAGSDLEHHHHHH | not soluble |
| MYQAIAQAIIKSIMADEYPTKLPTEKVLMAQYNASRNTIRKAIDVVFRHGLLRRVQGSGNFIIKQPQNTKKVLNLSIGFDQSAMVDGGPLVSKVVTFDKVTADETLAQQGNIALGDEVYRVVRLRYLNDILYDLEESYFPRTVVPFLSSESVQHSIFAFLREAYGITGSTTENYVHQVRVDAQRAELIGCPDGDKTLCLEAINYLANGTVFNFSRTFFVYPDLELYYHTENIDLQN | not soluble |
| MDPTLYCVVAVDTKLGIGKNRCLPWPALRGDMRRFRQLTTDCAPGKQNMVVMGRRTWLSIPAGCRPLAGRINVVLSRTLETPPPGAHFLASSLDAALGLARSPELAQQIDKVWVIGGGDLYREALTGPWPVRLFLTRVLHDFACDVFLSHDSLAAYARVNPKPGEQERVFQERGIFYMFETYIKVTQSSDTALPDLERPRPATPPFSETS | soluble |
| MSRVCVFFLLSFIFSVHADPKVVNLFRVTSLGSLTISVESGGKIFLASGDDNQYLKNIQLTTGTTTITLDKLNDLNDDGSPKFITAAGSVILQTSNNDTTTSRLSGYIYVTTYLQAQDPTFSVYVLKTTQSISKMGMKSTVVVLNTVLRQELIDYDMPRAISYVTKIDHSPNTNLYFQWDIPASNWNDVTNNTFFRNPIELKNGTGPHFKVFFDNIEPLQIGLNYWYITSMGPFNLFLENKYVSDHSYTTTAVNTTGIIVGKSFYADRVVNFQSDTSRSSASGFFDSAYITDDLTIKLQFVGASFSNTLRKESETQNYAWSPAAPVNLTVTSTSTLPGTFYIQYFAFAGDLQPLTSTVATSLMLQTSTTTVASTAVTTSRIITTTKGSSSNCGVHILISLLLSMVFC | not soluble |
| GPGSMAVNILKAGFPVSVWNRTASKCDDLVAAGATACATPAELAAASDVVFTNLSDSPDVMEVVFGPNGVAAGICEGAIFVDNSTIKPSVAQEIARRLWKEKKVRALDAPVSGGDIGARNGTLTVMVGGDAAALATVLPVLLAVGKKVTHIGDCGAGQVCKAANQIMVAAQMVALGEILVFCEKCGVSGPTVIEAIKSGSAQCWTLDVKPDRLFAGNRAPGFKAALQSKDMGIVMDTAKEFGVPLPSTAVNTQLFQAMVQNGDGDRDNSAVVSVLERMANVHISEAERE | not soluble |
| ATFSKLLYRHRQFYTQFPWVEDKIREVCHHLDVSEELLPTGERLSSRRLRTIGIDLGRSSGFYSLAYLFEDPFVNIHGEKRLRPDFLVDVGQRVSFAGAPLYAAIHESIYGGIGGTTTNWSAHRIREEFPGCEENADPRSAEPFYLTGEHIFPWQFDEDPALQPYKAAAEQLATTQWEHSPYDAEVLKEQAAVTAACVYLDDAFVPFELSMDTAHTYRDLRLHVTNRFQHDGIRWDGAGILSTLRDKVLDH | not soluble |
| MSTFSFIIVNNEQVRIHDIQGKSHMSPYNGKKVNNVEGVVTALDKNGFYIEDNQPDNDPATSEGMYVYKKDANVAVGDLIQVDGVVEEYVGPGYAERFETDLTTTEIKASRVVVIAKDQSLPAPIVLGENGVKIPDQIIDNDAFGLFDPNEDAIDFYESIEGMRVTMPTPKVIAPQKNGNLYVTVKNGGDKIVTQYGTPLLDENQLNPERLSVKVPRDYVAKVGDTFTGDITGVVGYDYGSFRISPITELPAVVDGGFKQVGANIQPRLDKLTVATYNIENFSANKKETTDEKVKALAYSIKYNLKMPDIIGVEEMQDNNGLEHHHHHH | soluble |
| MLDLNRKLAKLEEEGKKIKVALIGAGHMGNGMVSQMANMKGIEASIVVDINLELAHKAFTDAGIDEEIIDNVTNEKDAEIKLQEGKVLTCNDFLVACKTKSIDVVIDATGGIAIGAEIALNSILNKKHIVMLNAETDCVVGPILKKLADDAGVIFTGSAGDEPGAVMELFDFADAMGFEVRVIGKGKNNKLDLDCNPDTVREEAERKGASPHMIASFKEGTKTMVEMALMCNATGFVPDVRGGHGIEATVNEVPKKYALKSEGGVLDNYGVVDFVNGIAPGVFVVVAHKLKAVNDELKYLSMGDGPNYILYRPYHLCSLETPLSAAMAVLDHKATIVPKAGLVAEVMTIAKKDLKKGEFMDGYGAYTCYGTIEKYDVAKAMNAVPIGLISKKTKVVKDIKKGEVITYDMVEIEKDTTLYHLRQLQEKIFG | not soluble |
| AECSVDIQGNDQMQFNTNAITVDKSCKQFTVNLSHPGNLPKNVMGHNWVLSTAADMQGVVTDGMASGLDKDYLKPDDSRVIAHTKLIGSGEKDSVTFDVSKLKEGEQYMFFCSELCGINHALMKGTLTLK | soluble |
| MGTVEKSSNNDASVTDDIRSAEYYHGMVPRQDAEGFLKREGDFLVRKTEQMPGKVVLAMSVRVTDELCRHFMLNMDPTSNKFYFEHTHQESTISELINWHMTTKTPISAASGAKIRRPMERSPWLINHDSIVANKKLGEGAFGDVFIAELDQGGKQEVAVKTMRAEATREARLRFMKEARLMRKYQHKHVVKLIGVAIHEHPLMIVMEYCPNGSLLSHLKKNKVSLIEKLRFTTEAADGIAYLERSKCIHRDIAARNCLLSAKNELKISDFGMSDNKDEIKDETLEKVPIKWLAPETMQEKVYTHKTDIWTFGVLVWEIYSDGAEPYPGLTKIQTRAKIVVNDYRMKMPDGTHPTVADVVTGTCWQKNPEKRSTMDSIHKKLREFYESKK | not soluble |
| MSLEGYSVLVLERHYRAGGYAHSFRRRKFIFDSAVRIAAGAMDGGLLEELLQEAGVSQDVEFLHLEDIYTAYYPNRKITVKGSVEGLIEAYCEEFPHECHNIRALVQEMEKLYEVTLMLLHSGDPLKVLSNPLMLKYRDKSFHDLTSSFLQDPQAIHSFAALWAYYGTPPTQGSAMFFAYAIMSYFKEDIYYAKGSFQSLADAFVKRIESLGGEVCLRNEVQRVEVEDRQIKGVHLQTGEYVEAEKVVCNGDFLKLVQHLVGEEHFPARYLKRISKLKPSISAFEVFLGVDLPLEKQGLSHETFIYNDYDYDLFMEKHQSLGEIGASGLSGLAISIPSLVDSSLAPEGMHTAILTTLVPYDIGCDWKEKKEDYQDQLIKMAERAIPNLGRHAVHVESGTPLTMERYTNNSFGSIYGWEQTKNQMTGRPQHETPIKGLYLSGQWTDPGGGIVSAILSGYKLRKKIMKEQVVMEGHHHHHH | not soluble |
| MGSDKIHHHHHHMKRRDFLITSAAALSFLLSGCAIGDRVVEEPLTPKSNPPRKSVVYVLKTERREEAVSKLMQNFSDFEGSTVGLKANYNSADPFPASTHPKTLSAIVDVLKEQKAEVFMAERSGMGNTSAVLKTMGILDLAREKGFTVIDLDSYDGWVLHQPEDSHWKKGYPFADIFLTVDSVIQTCCLKTHRFGGHFTMSLKNSVGMVARRWKGHDYMSELHTSPHMRKMIAEINVSYSPKIVIMDAIKGFSHGGPERGTVIEPGLMIASNDRVAIDAVGVAILRIHGTTPEVSKGSVFEQEQIARAIEIGLSSGEFEIIPANDDAEKICSEIEAVLWG | not soluble |
| MNVHQRYAMGDSLAAKHGLWSEEQIDAAARVRRIAEEQGLETIRFSFPDQHGILRGKTLVASEALNCLDNGATITTTMLAKDTSHKTVFPVFQAGGGFGMSEMQGGADVVMLPDPTTFRVLPWAPTTGWVLCDLYFADGRPVQFATRNIYRAALQKLAARGYDYKAGLEVEFHVFKVVDSKMRPEHAGQPGEPPEVSLLSHGYQYLTEQRYDQMEPVLELIRRDVVALGLPLRSIEVEFGPSQCEFTFQPTVGLLPADLMVLFRAAVKQICRRHGYHATFMCRPRIPNVVSSGWHLHQSVVARDGGRNAFMSDSDVLSDFGRHYLAGLMTHARAATVFTTPTINGYKRYRSYSLAPDRAIWGRDNRGVMLRVLGGAGDKATRIENRVGEPAANPYLYMASQILSGLDGVDRALDPGPSADTPYETKADLLPKSLREAIFALRDDPFFRTALGDEFVDYYTFIKNAEIERFQAEVTEWEQREYFEMF | soluble |
| SRRMKANARERNRMHGLNAALDNLRKVVPCYSKTQKLSKIETLRLAKNYIWALSEILRSG | soluble |
